# Assay results from the supplement of paper PMC7125110.
# ± gives the standard error. For some of these results: Fewer inactive variants are shown than the library holds.
# B1: glmS ribozyme (parent)
# chain: AUAAAAGCGCCAGAACUACAGAAAUGUAGUUGACGAGGAGGAGGUUUAUCGAAUUUUCGGCGGAUGCCUCCAAA
# Assays:
# Conditions in all cases: with glucosamine-6-phosphate
# [1] = variants of: B1; assay: kcat; higher = faster cleavage; RNA array
# In short: (§1)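 Barcoded glmS ribozyme variants on sequenced MiSeq chips were transcribed in situ by E. coli RNA polymerase and tracked through a hybridised Cy3 probe at 37 °C. Glucosamine-6-phosphate (40 μM to 10 mM) in HEPES/KCl/Mg(OAc)2 buffer was flowed in, and tiles were imaged over ~14 h. Signals were normalised to baseline and to non-cleaving reference variants; per-tile medians were fit to one- or two-exponential decays to give kobs. kcat and KM came from weighted Michaelis–Menten fits across concentrations.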
# [2] = variants of: B1; assay: KM; higher = weaker cofactor use; RNA array
# In short: as §1
# [3] = variants of: B1; assay: self-cleavage kobs at 40 uM GlcN6P; higher = faster cleavage; RNA array
# In short: as §1
# [4] = variants of: B1; assay: self-cleavage kobs at 160 uM GlcN6P; higher = faster cleavage; RNA array
# In short: as §1
# [5] = variants of: B1; assay: self-cleavage kobs at 640 uM GlcN6P; higher = faster cleavage; RNA array
# In short: as §1
# [6] = variants of: B1; assay: self-cleavage kobs at 2500 uM GlcN6P; higher = faster cleavage; RNA array
# In short: as §1
# [7] = variants of: B1; assay: self-cleavage kobs at 10000 uM GlcN6P; higher = faster cleavage; RNA array
# In short: as §1
Variant,kcat [1],KM [2],self-cleavage kobs at 40 uM GlcN6P [3],self-cleavage kobs at 160 uM GlcN6P [4],self-cleavage kobs at 640 uM GlcN6P [5],self-cleavage kobs at 2500 uM GlcN6P [6],self-cleavage kobs at 10000 uM GlcN6P [7]
G40U G66A,0.00396 ± 0.00044 s⁻¹,2220 ± 390 µM,8.13e-05 ± 1.2e-05 s⁻¹,0.000207 ± 5.2e-05 s⁻¹,0.000901 ± 0.00016 s⁻¹,0.00208 ± 0.0004 s⁻¹,0.00326 ± 0.00035 s⁻¹
G44C U47G G66U C67G,0.000596 ± 0.00019 s⁻¹,,,,0.000152 ± 5e-05 s⁻¹,0.000668 ± 0.00032 s⁻¹,0.000455 ± 0.00013 s⁻¹
G44U G66A,0.000401 ± 9.1e-05 s⁻¹,,,,0.000153 ± 3.3e-05 s⁻¹,0.000236 ± 4.4e-05 s⁻¹,0.000438 ± 0.0001 s⁻¹
A42U C70U,0.000154 ± 2e-05 s⁻¹,1640 ± 560 µM,,,3.64e-05 ± 7.2e-06 s⁻¹,0.000112 ± 1.2e-05 s⁻¹,0.000126 ± 1.2e-05 s⁻¹
A42U C70G,2.5e-05 ± 2e-06 s⁻¹,979 ± 380 µM,,,,,2.35e-05 ± 9.3e-06 s⁻¹
G40U U45C C70U,0.000444 ± 6.4e-05 s⁻¹,1000 ± 370 µM,,,0.000186 ± 3.9e-05 s⁻¹,0.00025 ± 8.8e-05 s⁻¹,0.000426 ± 7.7e-05 s⁻¹
G43A A53C,6.63e-05 ± 3.6e-06 s⁻¹,,,< 1e-05 s⁻¹,< 1e-05 s⁻¹,,
G41U C68U,5.17e-05 ± 8.8e-06 s⁻¹,,,< 1e-05 s⁻¹,,,
A42U U54G,0.000246 ± 1e-05 s⁻¹,736 ± 110 µM,,,0.000117 ± 2e-05 s⁻¹,0.000201 ± 3.1e-05 s⁻¹,0.000226 ± 2.1e-05 s⁻¹
A42U U54C,0.00019 ± 4.1e-05 s⁻¹,,,,6.5e-05 ± 1.1e-05 s⁻¹,0.00024 ± 3.8e-05 s⁻¹,0.000159 ± 1.7e-05 s⁻¹
A42U U54A,0.000282 ± 2.2e-05 s⁻¹,1890 ± 340 µM,,,6.94e-05 ± 9.8e-06 s⁻¹,0.000177 ± 2e-05 s⁻¹,0.000231 ± 2e-05 s⁻¹
G43A C71U,< 1e-05 s⁻¹,,< 1e-05 s⁻¹,,,,
A42C U56C,< 1e-05 s⁻¹,,< 1e-05 s⁻¹,,,,
G41U U56G,0.000847 ± 0.00013 s⁻¹,2280 ± 590 µM,2.66e-05 ± 1.2e-05 s⁻¹,4.73e-05 ± 1.1e-05 s⁻¹,0.000185 ± 3.5e-05 s⁻¹,0.000491 ± 5.8e-05 s⁻¹,0.00064 ± 9.6e-05 s⁻¹
G41U U56C,3.03e-05 ± 3.2e-06 s⁻¹,1560 ± 400 µM,,< 1e-05 s⁻¹,,,
G43U U55C,3.2e-05 ± 2.4e-06 s⁻¹,,,,,3.2e-05 ± 1.2e-05 s⁻¹,3.01e-05 ± 8.7e-06 s⁻¹
A42C G60C,< 1e-05 s⁻¹,,< 1e-05 s⁻¹,< 1e-05 s⁻¹,< 1e-05 s⁻¹,,
A42C C50A,< 1e-05 s⁻¹,,< 1e-05 s⁻¹,,,< 1e-05 s⁻¹,< 1e-05 s⁻¹

Variant,kcat [1],KM [2],self-cleavage kobs at 40 uM GlcN6P [3],self-cleavage kobs at 160 uM GlcN6P [4],self-cleavage kobs at 640 uM GlcN6P [5],self-cleavage kobs at 2500 uM GlcN6P [6],self-cleavage kobs at 10000 uM GlcN6P [7]
G41U A53U,0.00104 ± 0.00026 s⁻¹,889 ± 390 µM,9.28e-05 ± 2e-05 s⁻¹,0.000145 ± 2.2e-05 s⁻¹,0.000413 ± 8.1e-05 s⁻¹,0.000697 ± 0.0001 s⁻¹,0.00119 ± 0.00021 s⁻¹
G43U G66A,2.89e-05 ± 1.6e-06 s⁻¹,431 ± 170 µM,,,,,
G43A U46A,1.87e-05 ± 2.1e-06 s⁻¹,,< 1e-05 s⁻¹,,,,
G40C U49G,6.75e-05 ± 1.8e-05 s⁻¹,,< 1e-05 s⁻¹,,,5.43e-05 ± 1.5e-05 s⁻¹,5.5e-05 ± 1.3e-05 s⁻¹
G41A U55A,6.65e-05 ± 1.1e-05 s⁻¹,,,4.67e-05 ± 1.4e-05 s⁻¹,6.66e-05 ± 1.1e-05 s⁻¹,5.75e-05 ± 1.2e-05 s⁻¹,
G40C U55G,0.000581 ± 0.00017 s⁻¹,,,0.000102 ± 2.2e-05 s⁻¹,0.000531 ± 0.0001 s⁻¹,0.000712 ± 0.00015 s⁻¹,0.00045 ± 8.6e-05 s⁻¹
G41A U65A,0.000213 ± 2.1e-05 s⁻¹,1040 ± 220 µM,,,7.98e-05 ± 1.2e-05 s⁻¹,0.000171 ± 3e-05 s⁻¹,0.000182 ± 3e-05 s⁻¹
A42G U65G,0.00591 ± 0.00097 s⁻¹,4220 ± 930 µM,5.66e-05 ± 1.2e-05 s⁻¹,0.000279 ± 7.4e-05 s⁻¹,0.000708 ± 0.00015 s⁻¹,0.00211 ± 0.00033 s⁻¹,0.00436 ± 0.00084 s⁻¹
G44C U55C,3.25e-05 ± 2.5e-06 s⁻¹,,,,2.79e-05 ± 1.3e-05 s⁻¹,,
A42U U65G,0.000343 ± 2.8e-05 s⁻¹,3030 ± 500 µM,,,5.7e-05 ± 1e-05 s⁻¹,0.000165 ± 1.9e-05 s⁻¹,0.000257 ± 2.8e-05 s⁻¹
G43U U45G,0.00603 ± 0.00084 s⁻¹,1980 ± 380 µM,0.00013 ± 1.9e-05 s⁻¹,0.000412 ± 0.00012 s⁻¹,0.00124 ± 0.00027 s⁻¹,0.00422 ± 0.0011 s⁻¹,0.005 ± 0.00078 s⁻¹
G40U C67A,0.000158 ± 6.3e-05 s⁻¹,,,,7.75e-05 ± 1.4e-05 s⁻¹,9.78e-05 ± 1.7e-05 s⁻¹,0.000218 ± 5.5e-05 s⁻¹
G44C C67G,0.0216 ± 0.0034 s⁻¹,3930 ± 790 µM,0.000211 ± 4.8e-05 s⁻¹,0.000995 ± 0.00033 s⁻¹,0.00316 ± 0.00083 s⁻¹,0.00752 ± 0.0019 s⁻¹,0.0168 ± 0.0047 s⁻¹
G41C C71A,0.000115 ± 2e-05 s⁻¹,,,,5.78e-05 ± 1.1e-05 s⁻¹,0.000181 ± 2.7e-05 s⁻¹,0.000103 ± 8.1e-06 s⁻¹
A42U C50G,< 1e-05 s⁻¹,,< 1e-05 s⁻¹,,,,< 1e-05 s⁻¹
A42G U69G,0.000182 ± 2.9e-05 s⁻¹,,5.35e-05 ± 2.1e-05 s⁻¹,,0.000119 ± 4.1e-05 s⁻¹,,0.000202 ± 4.3e-05 s⁻¹
U45A A53C,0.0341 ± 0.0078 s⁻¹,3160 ± 860 µM,0.000466 ± 8.3e-05 s⁻¹,0.00139 ± 0.00027 s⁻¹,0.00608 ± 0.00081 s⁻¹,0.017 ± 0.0047 s⁻¹,0.0239 ± 0.0068 s⁻¹
